Reference: patent publication US7449563B2, “Methods and compositions for destabilizing microtubules” (Academia Sinica, priority 2003, dated 2008)
“Also recorded” adds a separate entry of the source. No end group written: not given here.

B1: peptide M: synthetic peptide, amino acid residues 320-390 of CPAP (SEQ ID NO:1) (peptide, listed as Homo sapiens)
chain: ANIEERPIKAAIGERKQTFEDYLEEQIQLEEQELKQKQLKEAEGPLPIKAKPKQPFLKRGEGLARFTNAKS
B2: GST-PN2-3: GST fusion polypeptide corresponding to residues 311-422 of CPAP (protein)
chain: QKHDDSSEVANIEERPIKAAIGERKQTFEDYLEEQIQLEEQELKQKQLKEAEGPLPIKAKPKQPFLKRGEGLARFTNAKSKFQKGKESKLVTNQSTSEDQPLFKMDRQQLQR
modifications: left off: a dimerising Fc or GST
notes: GST fusion polypeptide corresponding to residues 311-422 of CPAP
B3: GST-CM: GST fusion polypeptide corresponding to amino acid residues 132-607 of CPAP (protein)
chain: EFKEGAYKDPLFKKLEQLKEVQQKKQEQLKRQQLEQLQRLMEEQEKLLTMVSGQCTLPGLSLLPDDQSQKHRSPGNTTTGERATCCFPSYVYPDPTQEETYPSNILSHEQSNFCRTAHGDFVLTSKRASPNLFSEAQYQEAPVEKNNLKEENRNHPTGESILCWEKVTEQIQEANDKNLQKHDDSSEVANIEERPIKAAIGERKQTFEDYLEEQIQLEEQELKQKQLKEAEGPLPIKAKPKQPFLKRGEGLARFTNAKSKFQKGKESKLVTNQSTSEDQPLFKMDRQQLQRKTALKNKELCADNPILKKDSKARTKSGSVTLSQKPKMLKCSNRKSLSPSGLKIQTGKKCDGQFRDQIKFENKVTSNNKENVTECPKPCDTGCTGWNKTQGKDRLPLSTGPASRLAAKSPIRETMKESESSLDVSLQKKLETWEREKEKENLELDEFLFLEQAADEISFSSNSSFVLKILERDQQI
modifications: left off: a dimerising Fc or GST
notes: GST fusion polypeptide corresponding to amino acid residues 132-607 of CPAP
B4: GFP-A5M2: GFP-tagged CPAP residues 607-1070 (protein, UniProt Q9HC77 607-1070, looked up, fragment)
chain: ICKGHRMSSTPVKAVPQKTNPADPISHCNRSEDLDHTAREKESECEVAPKQLHSLSSADELREQPCKIRKAVQKSTSENQTEWNARDDEGVPNSDSSTDSEEQLDVTIKPSTEDRERGISSREDSPQVCDDKGPFKDTRTQEDKRRDVDLDLSDKDYSSDESIMESIKHKVSEPSRSSSLSLSKMDFDDERTWTDLEENLCNHDVVLGNESTYGTPQTCYPNNEIGILDKTIKRKIAPVKRGEDLSKSRRSRSPPTSELMMKFFPSLKPKPKSDSHLGNELKLNISQDQPPGDNARSQVLREKIIELETEIEKFKAENASLAKLRIERESALEKLRKEIADFEQQKAKELARIEEFKKEEMRKLQKERKVFEKYTTAARTFPDKKEREEIQTLKQQIADLREDLKRKETKWSSTHSRLRSQIQMLVRENTDLREEIKVMERFRLDAWKRAEAIESSLEVEKKDK
modifications: GFP tag
B5: GFP-A5N: GFP-tagged CPAP residues 423-607 (protein, UniProt Q9HC77 423-607, looked up, fragment)
chain: KTALKNKELCADNPILKKDSKARTKSGSVTLSQKPKMLKCSNRKSLSPSGLKIQTGKKCDGQFRDQIKFENKVTSNNKENVTECPKPCDTGCTGWNKTQGKDRLPLSTGPASRLAAKSPIRETMKESESSLDVSLQKKLETWEREKEKENLELDEFLFLEQAADEISFSSNSSFVLKILERDQQI
modifications: GFP tag
B6: GFP-PN2-2: GFP-tagged CPAP residues 191-310 (protein, UniProt Q9HC77 191-310, looked up, fragment)
chain: LSLLPDDQSQKHRSPGNTTTGERATCCFPSYVYPDPTQEETYPSNILSHEQSNFCRTAHGDFVLTSKRASPNLFSEAQYQEAPVEKNNLKEENRNHPTGESILCWEKVTEQIQEANDKNL
modifications: GFP tag
B7: GFP-PN1: GFP-tagged CPAP residues 1-132 (protein, UniProt Q9HC77 1-132, looked up, fragment)
chain: MFLMPTSSELNSGQNFLTQWMTNPSRAGVILNRGFPILEADKEKRAAVDISTSFPIKGTHFSDSFSFINEEDSLLEEQKLESNNPYKPQSDKSETHTAFPCIKKGPQVAACHSAPGHQEENKNDFIPDLASE
modifications: GFP tag
B8: GFP-CM: GFP-tagged CPAP residues 132-607, expressed from a transfected vector (protein, UniProt Q9HC77 132-607, looked up, fragment)
chain: B3 chain
modifications: GFP tag
notes: GFP-tagged CPAP residues 132-607, expressed from a transfected vector
B9: GFP-A5C: GFP-tagged CPAP residues 1070-1338 (protein, UniProt Q9HC77 1070-1338, looked up, fragment)
chain: KLANTSVRFQNSQISSGTQVEKYKKNYLPMQGNPPRRSKSAPPRDLGNLDKGQAASPREPLEPLNFPDPEYKEEEEDQDIQGEISHPDGKVEKVYKNGCRVILFPNGTRKEVSADGKTITVTFFNGDVKQVMPDQRVIYYYAAAQTTHTTYPEGLEVLHFSSGQIEKHYPDGRKEITFPDQTVKNLFPDGQEESIFPDGTIVRVQRDGNKLIEFNNGQRELHTAQFKRREYPDGTVKTVYANGHQETKYRSGRIRVKDKEGNVLMDTEL
modifications: GFP tag

Target: T1, polymerized microtubules (bovine brain tubulin) (Bos taurus, UniProt P81947+Q6B856)
T1 construct: containing 125 μg bovine brain tubulin (Cytoskeleton, Denver, Colo.); purchased Cytoskeleton, Denver, Colo; host or cells: bovine brain (tissue-purified)
Experiment: Microtubule depolymerization assay (centrosomes omitted)
Assay type: biochemical
Details: centrosomes absent; nocodazole 15 μM as positive control; data not shown
Procedure: Microtubule Depolymerization Assay
In this assay, centrosomes are omitted from the above reaction mixtures to determine the effects of various truncated GST-CPAP proteins or synthetic peptides on microtubule polymerization in the absence of centrosomes. Polymerized microtubules were stained using FITC-conjugated anti-α-tubulin monoclonal antibodies, as above. Nocodazole (15 μM) was added to some reactions mixtures as a positive control for microtubule depolymerization.

T1 sequence (P81947 whole entry): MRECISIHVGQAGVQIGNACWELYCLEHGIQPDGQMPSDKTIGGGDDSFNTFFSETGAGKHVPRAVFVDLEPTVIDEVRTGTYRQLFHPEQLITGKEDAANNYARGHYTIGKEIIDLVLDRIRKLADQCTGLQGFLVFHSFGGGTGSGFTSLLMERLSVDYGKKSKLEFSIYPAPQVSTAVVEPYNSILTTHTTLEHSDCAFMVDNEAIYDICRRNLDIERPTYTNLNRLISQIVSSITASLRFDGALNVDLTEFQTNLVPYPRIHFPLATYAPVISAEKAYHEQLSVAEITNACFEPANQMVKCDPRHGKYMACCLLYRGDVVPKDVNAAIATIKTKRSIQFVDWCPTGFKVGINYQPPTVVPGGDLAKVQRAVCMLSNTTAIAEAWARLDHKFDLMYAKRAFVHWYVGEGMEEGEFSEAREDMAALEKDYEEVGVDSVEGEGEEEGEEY
T1 sequence (Q6B856 whole entry): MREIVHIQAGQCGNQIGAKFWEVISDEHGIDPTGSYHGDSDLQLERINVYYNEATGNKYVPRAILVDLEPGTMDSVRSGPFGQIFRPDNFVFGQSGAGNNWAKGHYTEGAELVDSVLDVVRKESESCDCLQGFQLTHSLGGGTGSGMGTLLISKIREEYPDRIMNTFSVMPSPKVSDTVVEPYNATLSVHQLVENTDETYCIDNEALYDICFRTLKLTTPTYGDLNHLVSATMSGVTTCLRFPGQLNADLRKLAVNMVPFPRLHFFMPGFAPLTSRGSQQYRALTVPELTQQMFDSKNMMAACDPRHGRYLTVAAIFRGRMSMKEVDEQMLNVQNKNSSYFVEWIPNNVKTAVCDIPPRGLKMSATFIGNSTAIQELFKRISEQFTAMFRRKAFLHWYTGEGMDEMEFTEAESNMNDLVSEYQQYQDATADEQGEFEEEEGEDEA

Row | Disassembly of polymerized microtubules in the absence of centrosomes (in words) | Molecule
1 | no such effect | GST-PN2-1: GST fusion polypeptide with sub-region PN2-1 of PN2 (CPAP residues 132-190 per b157) (EFKEGAYKDPLFKKLEQLKEVQQKKQEQLKRQQLEQLQRLMEEQEKLLTMVSGQCTLPG; also: GST fusion, terminus not given here)
2 | disassembled | B1
3 | disassembled | B2
4 | disassembled | B3

Row | Molecule | Disassembly of polymerized microtubules in the absence of centrosomes (in words)
5 | COC(=O)Nc1nc2ccc(C(=O)c3cccs3)cc2[nH]1 [nocodazole, Nocodazole, reference compound] | disassembled

Target: T2, microtubule nucleation from purified centrosomes (bovine brain tubulin) (Bos taurus, UniProt P81947+Q6B856)
T2 construct: containing 125 μg bovine brain tubulin (Cytoskeleton, Denver, Colo.); purchased Cytoskeleton, Denver, Colo; host or cells: bovine brain (tissue-purified)
Experiment: In vitro centrosome-dependent microtubule nucleation assay
Assay type: biochemical
Details: 20 μM or 40 μM peptide
Procedure: In vitro Centrosome-Dependant Microtubule Nucleation Assay
Isolation of centrosomes and microtubule nucleation tests were performed as described (Hung et al., 2000). To investigate the effect of different GST-truncated CPAP fusion proteins on microtubule nucleation, purified centrosomes (4 μl per reaction) were pre-incubated with the various truncated GST-CPAP fusion proteins or FPLC purified synthetic peptides for 10 min at 4° C. The reaction mixtures were then incubated in 65 μl RG1 buffer (80 mM PIPES, pH 6.8, 1 mM EGTA, 1 mM MgCl2, and 1 mM GTP) containing 125 μg bovine brain tubulin (Cytoskeleton, Denver, Colo.) for 4 min at 37° C.
Microtubules present in the reaction mixtures were fixed in 200 μl 1% glutaraldehyde in RG1 buffer, sedimented onto acid-treated coverslips, and subjected to immunofluoresence analysis using anti-α-tubulin monoclonal antibodies N356 (Amersham, Piscataway, N.J.) or FITC-conjugated anti-α-tubulin monoclonal antibodies (DM1A-FITC; Sigma, Saint Louis, Mo.). Truncated GST-CPAP proteins were detected using an anti-GST polyclonal antibody (Molecular Probes, Cincinnati, Ohio). The extent of microtubule assembly in each reaction was determined microscopically by comparing the extent of microtubule formation on each coverslip. Decreased microtubule formation in reactions comprising polypeptides derived from CPAP indicated the ability of such polypeptides to inhibit centrosome-dependent microtubule assembly.

T2 sequence (P81947 whole entry): as the sequence (P81947 whole entry) above
T2 sequence (Q6B856 whole entry): as the sequence (Q6B856 whole entry) above

Row | Molecule | Effect of synthetic peptide on centrosome-dependent microtubule nucleation (in words)
6 | B1 | inhibited centrosome-dependent microtubule nucleation in a dose dependent manner

Same assay, conditions: in vitro, purified centrosomes

Row | Molecule | Inhibition of microtubule nucleation/assembly from purified centrosomes (in words)
7 | B2 | possessed the ability to inhibit microtubule assembly; also recorded: greatest level of inhibition
8 | B3 | inhibited

System: HeLa cells
Experiment: Cell-based assay for CPAP activity: microtubule reassembly in cold-treated transfected HeLa cells
Set-up: species or system human
Details: transiently transfected HeLa cells
Procedure: Cell Culture and Transfection
HeLa cells were maintained in DMEM supplemented with 10% fetal bovine serum. cDNA clones encoding different portions of CPAP were subcloned, in an appropriate reading frame, into the CMV promoter-driven EGFP-C1 expression vector (Clontech, Palo Alto, Calif.). Transient transfections were performed using Lipofectamine 2000 (Invitrogen, Carlsbad, Calif.) according to the manufacturer's instructions.
Cold Treatment, Immunofluorescence and Confocal Microscopy
HeLa cells were grown on coverslips for at least 24 hr. Cold treatment was performed by incubating the cells at 4° C. for 1 hr, then replacing the cold medium with medium warmed to 30° C. and incubating the cells for 2 min at 30° C. The cells were then fixed with 1% formaldehyde for 30 min at room temperature.
The fixed cells were incubated in the presence of anti-α-tubulin monoclonal antibodies (N356, Amersham, Piscataway, N.J.) and anti-γ-tubulin polyclonal antibodies (Sigma, Saint Louis, Mo.). Bound anti-α-tubulin monoclonal antibodies (N356) were detected with Alexa 568, a Texas Red-conjugated goat anti-mouse IgG, or Alexa 647, a far-red fluorophore-conjugated goat anti-mouse IgG. Bound anti-γ-tubulin polyclonal antibodies were detected with Alexa 568 (Molecular Probes Inc.). The resulting […] signals were detected using a laser scanning confocal system (MRC 1000, Bio-Rad Laboratories, Hercules, Calif.).
The effect of various polypeptides derived from CPAP was determined by evaluating the amounts of mitotic spindle formation in the transfected cells. Decreased mitotic spindle formation indicated the presence of an activity that inhibited microtubule formation or destabilized microtubules.

Row | Molecule | Inhibition of microtubule reassembly in cold-treated mitotic cells (in words)
9 | B4 | no significant inhibition
10 | B5 | no significant inhibition
11 | B6 | no significant inhibition
12 | B7 | no significant inhibition
13 | B8 | significantly inhibited microtubule reassembly
14 | B9 | no significant inhibition
